Laboratory results: patent publication US20120134979A1, “METHODS AND COMPOSITIONS FOR THE TREATMENT OF SICKLE CELL DISEASE” (priority 2010, published 2012)

Assays:
SCD Tg mice [1] = assay: Life span of RBCs in SCD Tg mice (in vivo biotin labelling); parameters: species or system mouse
Procedure: Measurement of life span of RBCs in SCD Tg mice. SCD Tg mice were treated with or without PEG ? ADA (2.5 unit/week) for 8 weeks. At 6 week-treatment, RBCs were labeled in vivo by using N-hydroxysuccinimide (NHS) biotin and the life span of circulating red blood cells was measured as described (Perumbeti, et al. A novel human gamma-globin gene vector for genetic correction of sickle cell anemia in a humanized sickle mouse model: critical determinants for successful correction. Blood. 2009; 114(6):1174-1185).
Specifically, 50 mg/kg of NHS biotin was injected into the retro-orbital plexus of SCD Tg mice (prepared in 100 μl sterile saline just prior to injection; initially dissolved at 50 mg/ml in N,—N,-dimethylacetamide) Blood samples (only 5 μl) were collected after first day of biotin-injection from tail vein by venipuncture to determine the percentage of RBCs labeled with biotin. Subsequently, 5 μl of blood were obtained by tail vein every 3 days for measurement of biotinylated RBCs until the 10th day. The percentage of biotinylated RBCs was calculated by determining the fraction of peripheral blood cells labeled with Ter-119 (to identify RBCs) that were also labeled with a streptavidin-conjugated fluorochrome by flow cytometry.

SCD Tg mice [2] = assay: Hematological parameters of SCD Tg mice treated with PEG-ADA or PSB1115 for 8 weeks; assay type: in vivo, mouse; details: 8 weeks treatment
From the text: Mice. Berkley sickle cell disease transgenic mice (SCD Tg mice), expressing exclusively human sickle hemoglobin (HbS) were purchased from The Jackson Laboratory Inc (Paszty, C. Transgenic and gene knock-out mouse models of sickle cell anemia and the thalassemias. Curr Opin Hematol 4, 88-93, 1997). C57BL/6 mice used as controls were purchased from Harlan Laboratories. Adenosine receptor deficient mice were obtained from the following sources: A1R-deficient mice (Jurgen Schnermann, NIDDK, NIH); A2AR-deficient mice (Jiang-Fan Chen, Boston University School of Medicine); A2BR-deficient mice (Michael R. Blackburn, University of Texas-Houston Medical School); and A3R-deficient mice (Marlene Jacobson, Merck Research Laboratories). All receptor deficient mice were backcrossed at least 10 generations onto the C57Blk/6J background and were genotyped according to established protocols (Sun, D., et al. Mediation of tubuloglomerular feedback by adenosine: evidence from mice lacking adenosine receptors. Proc Natl Acad Sci USA 98, 9983-9988, 2001; Nemeth, Z. H., et al. Adenosine receptor activation ameliorates type 1 diabetes. FASEB J, 2007; Chen, J. F., et al. A2A adenosine receptor deficiency attenuates brain injury induced by transient focal ischemia in mice. J Neurosci 19, 9192-9200, 1999; Salvatore, C. A., et al. Disruption of the A3 adenosine receptor gene in mice and its effect on stimulated inflammatory cells. The Journal of Biological Chemistry 275, 4429-4434, 2000). Animals were maintained in accordance with institutional and NIH guidelines under research protocols that were reviewed and approved by the University of Texas Health Science Center at Houston Animal Welfare Committee.
Chronic PEG-ADA therapy. SCD transgenic mice, at eight weeks of age, were divided to two groups. One group was injected with 2.5 U PEG-ADA weekly for 8 weeks. This dosing protocol was designated SCD with PEG-ADA treatment regimen (SCD+PEG-ADA). Another group was injected with normal saline for 8 weeks; it was designated as SCD without PEG-ADA treatment regimen (SCD). Wild-type mice (C57Bl/6) used as control were injected with saline or PEG-ADA as with the SCD groups.
Chronic treatment with A2BR antagonist, PSB1115. SCD transgenic mice or wild type mice (eight weeks of age) were divided to two groups, one groups was injected with 200 μg of PSB1115 (an A2B receptor antagonist: obtained from Tocris Bioscience, St. Louis, Mo.) in PBS, daily for 8 weeks. One of groups was injected with saline.
Morphological study of erythrocytes and quantification of reticulocytes by flow cytometry. Blood smears were stained using the WG16-500 ml kit (Sigma-Aldrich) for sickled cells and observed using 100× oil immersion objective of Olympus BX60 microscope. […] The percentages of sickled cells among the counted cells were calculated. Reticulocyte was labeled by Retic-COUNT Reagent (Becton Dickinson) and quantified by flow cytometry (Perumbeti, et al., A novel human gamma-globin gene vector for genetic correction of sickle cell anemia in a humanized sickle mouse model: critical determinants for successful correction. Blood. 2009; 114(6):1174-1185).

B1: PEG-ADA: polyethylene glycol-modified adenosine deaminase, a drug used to lower adenosine concentrations in ADA-deficient humans (protein, UniProt P56658 2-363, looked up)
Adenosine deaminase: AQTPAFNKPKVELHVHLDGAIKPETILYYGRKRGIALPADTPEELQNIIGMDKPLSLPEFLAKFDYYMPAIAGCREAVKRIAYEFVEMKAKDGVVYVEVRYSPHLLANSKVEPIPWNQAEGDLTPDEVVSLVNQGLQEGERDFGVKVRSILCCMRHQPSWSSEVVELCKKYREQTVVAIDLAGDETIEGSSLFPGHVKAYAEAVKSGVHRTVHAGEVGSANVVKEAVDTLKTERLGHGYHTLEDATLYNRLRQENMHFEVCPWSSYLTGAWKPDTEHPVVRFKNDQVNYSLNTDDPLIFKSTLDTDYQMTKNEMGFTEEEFKRLNINAAKSSFLPEDEKKELLDLLYKAYGMPSPASAEQCL
modifications: PEGylated
fold increase of half-life of RBCs (SCD Tg mice [1]; chronic treatment vs untreated): 2 fold
half-life of RBCs (SCD Tg mice [1]; chronic treatment, untreated 2 days): 96 h
HCT (SCD Tg mice [2]): 30.15 ± 8.90 %
Hb (SCD Tg mice [2]): 7.71 ± 2.64 g/dL
MCH (SCD Tg mice [2]): 12.38 ± 2.85 pg
MCHC (SCD Tg mice [2]): 25.33 ± 1.21 g/dL
MCV (SCD Tg mice [2]): 48.58 ± 8.79 fL
RDW (SCD Tg mice [2]): 28.03 ± 1.14 %
Reticulocyte (SCD Tg mice [2]): 43 ± 4.52 %
Sickle cell (SCD Tg mice [2]): 10.35 ± 0.39 %
WBC (SCD Tg mice [2]): 15.00 ± 2.79 k/μl
RBC (SCD Tg mice [2]; mean ± SEM): 6.15 ± 1.01 M/μl
